According to patent publication US6518397B1, “Pharmaceuticals for modulating hormone responsiveness” (priority 1995, dated 2003):

T1: DNA binding domain of recombinant rat androgen receptor (AR) / calreticulin (p60) (Homo sapiens, UniProt P27797)
T1 construct: endogenous in cells
T1 sequence (P27797 18-417): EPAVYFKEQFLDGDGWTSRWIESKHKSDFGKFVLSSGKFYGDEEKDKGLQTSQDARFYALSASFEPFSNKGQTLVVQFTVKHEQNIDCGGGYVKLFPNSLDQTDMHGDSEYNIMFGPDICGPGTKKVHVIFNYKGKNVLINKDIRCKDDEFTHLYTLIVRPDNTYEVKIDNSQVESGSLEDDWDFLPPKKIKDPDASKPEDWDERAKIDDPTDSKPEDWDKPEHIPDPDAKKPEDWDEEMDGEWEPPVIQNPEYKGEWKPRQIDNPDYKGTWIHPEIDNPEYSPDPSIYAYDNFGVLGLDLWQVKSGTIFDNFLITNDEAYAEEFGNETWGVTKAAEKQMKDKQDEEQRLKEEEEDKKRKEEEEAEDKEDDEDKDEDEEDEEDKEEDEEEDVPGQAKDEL

B1: p60 (calreticulin): 60 kDa protein, calreticulin, purified by affinity chromatography on KLGFFKR-sepharose (protein)
chain: T1 sequence (P27797 18-417)

How the values were obtained:
[1] = tested on: calreticulin mRNA in MC3T3 cells; assay: Calreticulin mRNA levels in MC3T3 cells; format: cell-based, mouse
Procedure: Calreticulin expression levels in these cell types are determined at the outset by Western blot analysis. In addition to utilizing these stable expression vectors, we construct inducible calreticulin expression sense- and antisense-cDNA expression vectors driven by strong metal inducible promoters (Filmus et al., 1992). The inducible vectors allow us to turn calreticulin expression on or off at will. In the MC3T3 cells, 1,25,dihydroxyvitamin D3 has a proliferative effect on these cells at subconfluency, but when added to confluent, mineralizing cultures, it enhances the mineralization process. The transfected cells are analyzed for the level of calreticulin expression by Western blot analysis as described by us previously as well as by Northern blot analysis for mRNA levels. The effect of up or down regulation of calreticulin is determined in terms of the above mentioned responses to 1,25 dihydroxyvitamin D3. In addition, the effect on the expression of vitamin D responsive genes, such as c-fos and integrin b3 subunit (Xu et al., 1993) is determined by Northern blot and Western blot analysis. […] The luciferase activity in mock transfected versus calreticulin sense- and antisense-cDNA transfected cells (stable and inducible) is then be determined as described by us previously (see Example 6). […]

AP-1 = assay: Binding of AP-1 to DNA
[2] = target: T1, DNA binding domain of recombinant rat androgen receptor (AR) / calreticulin (p60); assay: Gel mobility shift (gel retardation) assay: calreticulin (p60) inhibition of AR-ARE binding and its reversal by peptides/antibody; conditions: protein pre-incubated with AR 30 min at 4° C.
Procedure: To determine whether p60 (calreticulin) could directly modulate the binding of nuclear hormone receptors to DNA via the KXFFX^1R [SEQ ID NO:1] sequence, the interaction of the DNA binding domain of recombinant androgen receptor with its hormone responsive element was analyzed by carrying out gel mobility shift assays.
As described in Rennie et al., 1993, DNA binding domain of recombinant rat androgen receptor was prepared as a GST-fusion protein using the pGEX-3X vector and purified by glutathione-agarose affinity chromatography. p60 (calreticulin) was purified by affinity chromatography on KLGFFKR-sepharose [SEQ ID NO:7], followed by gel electrophoresis as described in detail in Rojiani et al., 1991. […] Recombinant calreticulin (GST-fusion protein) was prepared as described by Baksh and Michalak, 1991. Gel retardation assays were carried out as described by Rennie et al., 1993. To analyze the effect of p60, or recombinant calreticulin, on receptor-DNA binding activity, the AR was pre-incubated with p60 for 30 min at 4° C. To analyze the effects of synthetic peptides, anti-calreticulin antibody, and non-immune IgG on p60 inhibition of AR-ARE binding, the peptide, antibody or IgG were pre-incubated with p60 for 30 min at 4° C. The androgen receptor preparation was then added to these mixtures and further incubated for 30 min at 4° C.
Affinity purified DNA binding domain of the recombinant rat androgen receptor (AR) was pre-incubated with or without the indicated concentrations of purified p60 at 4° C. for 30 min. After this pre-incubation the reaction mixtures were incubated with ^32P-labeled 26 base pair ARE (Rennie et al., 1993) (androgen response element), and analyzed by gel retardation assay. The sequence of the ARE used was [SEQ ID NO:28]:
Amino acids in the KXFFX^1R [SEQ ID NO: 1] sequence were modified. Androgen receptor and calreticulin were incubated in the presence of the modified peptides and allowed to interact with an oligonucleotide containing the androgen response element (the method of this assay is described in Example 3). The interaction was analyzed by gel mobility shaft assay (FIGS. 5A-5C).

Molecule	Calreticulin mRNA levels [1]	Effect on binding of AP-1 to DNA (AP-1)	Effect of protein on AR-ARE (receptor-DNA) complex formation [2]
C=C1/C(=C\C=C2/CCC[C@]3(C)[C@@H]([C@H](C)CCCC(C)(C)O)CC[C@@H]23)C[C@@H](O)C[C@@H]1O [1,25,dihydroxyvitamin D3]	upregulates calreticulin mRNA levels		
B1		did not effect the binding of AP-1 to DNA	dose-dependent inhibition in the formation of this complex
